Common to all, as to assay: cell-based or functional assay
The target of experiment [1] is HA of influenza virus A/EW/MPF461/07 (H5) (Influenza A virus A/Eurasian Wigeon/MPF461/07 (H5)).
Experiment [2] concerns the target HA of influenza virus A/EW/MPD411/07 (H6) (Influenza A virus A/Eurasian Wigeon/MPD411/07 (H6)).
For experiment [3], the target named is HA of influenza virus A/Brisbane/10/2007 (H3) (Influenza A virus A/Brisbane/10/2007 (H3)).
Experiment [4] addresses HA of influenza virus A/Ck/HK/SSP176/09 (H9) (Influenza A virus A/Chick/HK/SSP176/09 (H9)).
Experiment [5] concerns the target HA of influenza virus A/Hiroshima/52/2005 (H3) (Influenza A virus A/Hiroshima/52/2005 (H3)).
Experiment [6] addresses HA of influenza virus A/Panama/2007/1999 (H3) (Influenza A virus A/Panama/2007/1999 (H3)).
The target in experiment [7] is HA of influenza virus A/Env/MPU3156/05 (H2) (Influenza A virus A/Env/MPU3156/05 (H2)).
Experiment [8] concerns the target HA of influenza virus A/EW/MPH571/08 (H8) (Influenza A virus A/Eurasian Wigeon/MPH571/08 (H8)).
The target in experiment [9] is HA of influenza virus A/Johannesburg/33/94 (H3) (Influenza A virus A/Johannesburg/33/94 (H3)).
For experiment [10], the target named is HA of influenza virus A/Hong Kong/1073/99 (H9) (Influenza A virus A/Hong Kong/1073/99 (H9)).
Experiment [11] concerns the target HA of influenza virus A/Brisbane/59/2007 (H1) (Influenza A virus A/Brisbane/59/2007 (H1)).
The target of experiment [12] is HA of influenza virus A/WF/MPA 892/06 (H4) (Influenza A virus A/WF/HK/MPA892/06 (H4)).
The target of experiment [13] is HA of influenza virus A/Hong Kong/1/68 (H3) (Influenza A virus A/Hong Kong/1/68 (H3)) (UniProt Q91MA7).
Experiment [14] has as its target HA of influenza virus A/Chick/Germany/N/49 (H10) (Influenza A virus A/Chick/Germany/N/49 (H10)) (UniProt P12581).
UniProt P12581, sequence (P12581 17-561 limits assumed): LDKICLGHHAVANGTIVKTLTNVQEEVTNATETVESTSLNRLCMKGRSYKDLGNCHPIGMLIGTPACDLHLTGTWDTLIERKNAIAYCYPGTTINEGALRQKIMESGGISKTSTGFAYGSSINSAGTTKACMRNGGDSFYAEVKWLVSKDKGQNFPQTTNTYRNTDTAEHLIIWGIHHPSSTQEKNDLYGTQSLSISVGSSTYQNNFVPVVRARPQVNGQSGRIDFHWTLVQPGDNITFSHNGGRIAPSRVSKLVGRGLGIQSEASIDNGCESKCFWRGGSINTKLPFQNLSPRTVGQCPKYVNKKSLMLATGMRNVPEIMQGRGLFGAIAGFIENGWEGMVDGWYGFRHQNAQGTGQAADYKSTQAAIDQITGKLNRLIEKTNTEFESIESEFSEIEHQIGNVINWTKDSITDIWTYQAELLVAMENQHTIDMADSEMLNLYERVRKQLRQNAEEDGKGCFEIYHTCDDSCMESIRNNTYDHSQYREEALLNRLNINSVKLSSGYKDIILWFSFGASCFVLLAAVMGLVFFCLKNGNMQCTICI

With CR9114 (antibody), the geomean IC50, virus neutralization assay (VNA) in experiment [1] came to 10.5 µg/mL; in experiment [2] it was 10.5 µg/mL; in [3], 5.6 µg/mL; in experiment [4], 6.3 µg/mL; in experiment [5] it was 12.5 µg/mL; in experiment [6], 39.9 µg/mL. For the same substance, the geomean IC50, virus neutralization assay (VNA) in experiment [7] turned out to be 8.8 µg/mL; in experiment [8], 8.8 µg/mL; in experiment [9], 21.9 µg/mL; in [10] it was 4.4 µg/mL; in experiment [11] it was 2.6 µg/mL; in experiment [12], 0.8 µg/mL. In addition, the geomean IC50, virus neutralization assay (VNA) came out at 19 µg/mL in experiment [13] and 15.7 µg/mL in [14].

Values taken from patent publication US20140120113A1.
